Results as given in article PMC10030467 (Nature Communications, 2023).

B1: TRIM72 W277A (natural protein, human, UniProt Q6ZMU5-1 2-477, looked up)
chain: SAAPGLLHQELSCPLCLQLFDAPVTAECGHSFCRACLGRVAGEPAADGTVLCPCCQAPTRPQALSTNLQLARLVEGLAQVPQGHCEEHLDPLSIYCEQDRALVCGVCASLGSHRGHRLLPAAEAHARLKTQLPQQKLQLQEACMRKEKSVAVLEHQLVEVEETVRQFRGAVGEQLGKMRVFLAALEGSLDREAERVRGEAGVALRRELGSLNSYLEQLRQMEKVLEEVADKPQTEFLMKYCLVTSRLQKILAESPPPARLDIQLPIISDDFKFQVARKMFRALMPALEELTFDPSSAHPSLVVSSSGRRVECSEQKAPPAGEDPRQFDKAVAVVAHQQLSEGEHYWEVDVGDKPRWALGVIAAEAPRRGRLHAVPSQGLWLLGLREGKILEAHVEAKEPRALRSPERRPTRIGLYLSFGDGVLSFYDASDADALVPLFAFHERLPRPVYPFFDVCWHDKGKNAQPLLLVGPEGAEA
notes: TRIM72, human, residues 2-477, point mutant; primers are in Supplementary Data 3; source: E. coli Rosetta (DE3), purified; not shown: His-Sumo, N-terminal, cleaved
B2: TRIM72 M179E (natural protein, human, UniProt Q6ZMU5-1 2-477, looked up)
chain: SAAPGLLHQELSCPLCLQLFDAPVTAECGHSFCRACLGRVAGEPAADGTVLCPCCQAPTRPQALSTNLQLARLVEGLAQVPQGHCEEHLDPLSIYCEQDRALVCGVCASLGSHRGHRLLPAAEAHARLKTQLPQQKLQLQEACMRKEKSVAVLEHQLVEVEETVRQFRGAVGEQLGKERVFLAALEGSLDREAERVRGEAGVALRRELGSLNSYLEQLRQMEKVLEEVADKPQTEFLMKYCLVTSRLQKILAESPPPARLDIQLPIISDDFKFQVWRKMFRALMPALEELTFDPSSAHPSLVVSSSGRRVECSEQKAPPAGEDPRQFDKAVAVVAHQQLSEGEHYWEVDVGDKPRWALGVIAAEAPRRGRLHAVPSQGLWLLGLREGKILEAHVEAKEPRALRSPERRPTRIGLYLSFGDGVLSFYDASDADALVPLFAFHERLPRPVYPFFDVCWHDKGKNAQPLLLVGPEGAEA
notes: TRIM72, human, residues 2-477, point mutant; source: E. coli Rosetta (DE3), purified; not shown: His-Sumo, N-terminal, cleaved
B3: TRIM72 R180E (natural protein, human, UniProt Q6ZMU5-1 2-477, looked up)
chain: SAAPGLLHQELSCPLCLQLFDAPVTAECGHSFCRACLGRVAGEPAADGTVLCPCCQAPTRPQALSTNLQLARLVEGLAQVPQGHCEEHLDPLSIYCEQDRALVCGVCASLGSHRGHRLLPAAEAHARLKTQLPQQKLQLQEACMRKEKSVAVLEHQLVEVEETVRQFRGAVGEQLGKMEVFLAALEGSLDREAERVRGEAGVALRRELGSLNSYLEQLRQMEKVLEEVADKPQTEFLMKYCLVTSRLQKILAESPPPARLDIQLPIISDDFKFQVWRKMFRALMPALEELTFDPSSAHPSLVVSSSGRRVECSEQKAPPAGEDPRQFDKAVAVVAHQQLSEGEHYWEVDVGDKPRWALGVIAAEAPRRGRLHAVPSQGLWLLGLREGKILEAHVEAKEPRALRSPERRPTRIGLYLSFGDGVLSFYDASDADALVPLFAFHERLPRPVYPFFDVCWHDKGKNAQPLLLVGPEGAEA
notes: as for B2
B4: TRIM72 R198A (natural protein, human, UniProt Q6ZMU5-1 2-477, looked up)
chain: SAAPGLLHQELSCPLCLQLFDAPVTAECGHSFCRACLGRVAGEPAADGTVLCPCCQAPTRPQALSTNLQLARLVEGLAQVPQGHCEEHLDPLSIYCEQDRALVCGVCASLGSHRGHRLLPAAEAHARLKTQLPQQKLQLQEACMRKEKSVAVLEHQLVEVEETVRQFRGAVGEQLGKMRVFLAALEGSLDREAERVAGEAGVALRRELGSLNSYLEQLRQMEKVLEEVADKPQTEFLMKYCLVTSRLQKILAESPPPARLDIQLPIISDDFKFQVWRKMFRALMPALEELTFDPSSAHPSLVVSSSGRRVECSEQKAPPAGEDPRQFDKAVAVVAHQQLSEGEHYWEVDVGDKPRWALGVIAAEAPRRGRLHAVPSQGLWLLGLREGKILEAHVEAKEPRALRSPERRPTRIGLYLSFGDGVLSFYDASDADALVPLFAFHERLPRPVYPFFDVCWHDKGKNAQPLLLVGPEGAEA
notes: as for B2
B5: TRIM72 R220A (natural protein, human, UniProt Q6ZMU5-1 2-477, looked up)
chain: SAAPGLLHQELSCPLCLQLFDAPVTAECGHSFCRACLGRVAGEPAADGTVLCPCCQAPTRPQALSTNLQLARLVEGLAQVPQGHCEEHLDPLSIYCEQDRALVCGVCASLGSHRGHRLLPAAEAHARLKTQLPQQKLQLQEACMRKEKSVAVLEHQLVEVEETVRQFRGAVGEQLGKMRVFLAALEGSLDREAERVRGEAGVALRRELGSLNSYLEQLAQMEKVLEEVADKPQTEFLMKYCLVTSRLQKILAESPPPARLDIQLPIISDDFKFQVWRKMFRALMPALEELTFDPSSAHPSLVVSSSGRRVECSEQKAPPAGEDPRQFDKAVAVVAHQQLSEGEHYWEVDVGDKPRWALGVIAAEAPRRGRLHAVPSQGLWLLGLREGKILEAHVEAKEPRALRSPERRPTRIGLYLSFGDGVLSFYDASDADALVPLFAFHERLPRPVYPFFDVCWHDKGKNAQPLLLVGPEGAEA
notes: as for B2
B6: TRIM72 F272A (natural protein, human, UniProt Q6ZMU5-1 2-477, looked up)
chain: SAAPGLLHQELSCPLCLQLFDAPVTAECGHSFCRACLGRVAGEPAADGTVLCPCCQAPTRPQALSTNLQLARLVEGLAQVPQGHCEEHLDPLSIYCEQDRALVCGVCASLGSHRGHRLLPAAEAHARLKTQLPQQKLQLQEACMRKEKSVAVLEHQLVEVEETVRQFRGAVGEQLGKMRVFLAALEGSLDREAERVRGEAGVALRRELGSLNSYLEQLRQMEKVLEEVADKPQTEFLMKYCLVTSRLQKILAESPPPARLDIQLPIISDDAKFQVWRKMFRALMPALEELTFDPSSAHPSLVVSSSGRRVECSEQKAPPAGEDPRQFDKAVAVVAHQQLSEGEHYWEVDVGDKPRWALGVIAAEAPRRGRLHAVPSQGLWLLGLREGKILEAHVEAKEPRALRSPERRPTRIGLYLSFGDGVLSFYDASDADALVPLFAFHERLPRPVYPFFDVCWHDKGKNAQPLLLVGPEGAEA
notes: as for B2
B7: TRIM72 M179A (natural protein, human, UniProt Q6ZMU5-1 2-477, looked up)
chain: SAAPGLLHQELSCPLCLQLFDAPVTAECGHSFCRACLGRVAGEPAADGTVLCPCCQAPTRPQALSTNLQLARLVEGLAQVPQGHCEEHLDPLSIYCEQDRALVCGVCASLGSHRGHRLLPAAEAHARLKTQLPQQKLQLQEACMRKEKSVAVLEHQLVEVEETVRQFRGAVGEQLGKARVFLAALEGSLDREAERVRGEAGVALRRELGSLNSYLEQLRQMEKVLEEVADKPQTEFLMKYCLVTSRLQKILAESPPPARLDIQLPIISDDFKFQVWRKMFRALMPALEELTFDPSSAHPSLVVSSSGRRVECSEQKAPPAGEDPRQFDKAVAVVAHQQLSEGEHYWEVDVGDKPRWALGVIAAEAPRRGRLHAVPSQGLWLLGLREGKILEAHVEAKEPRALRSPERRPTRIGLYLSFGDGVLSFYDASDADALVPLFAFHERLPRPVYPFFDVCWHDKGKNAQPLLLVGPEGAEA
notes: as for B2
B8: TRIM72 R169A (natural protein, human, UniProt Q6ZMU5-1 2-477, looked up)
chain: SAAPGLLHQELSCPLCLQLFDAPVTAECGHSFCRACLGRVAGEPAADGTVLCPCCQAPTRPQALSTNLQLARLVEGLAQVPQGHCEEHLDPLSIYCEQDRALVCGVCASLGSHRGHRLLPAAEAHARLKTQLPQQKLQLQEACMRKEKSVAVLEHQLVEVEETVRQFAGAVGEQLGKMRVFLAALEGSLDREAERVRGEAGVALRRELGSLNSYLEQLRQMEKVLEEVADKPQTEFLMKYCLVTSRLQKILAESPPPARLDIQLPIISDDFKFQVWRKMFRALMPALEELTFDPSSAHPSLVVSSSGRRVECSEQKAPPAGEDPRQFDKAVAVVAHQQLSEGEHYWEVDVGDKPRWALGVIAAEAPRRGRLHAVPSQGLWLLGLREGKILEAHVEAKEPRALRSPERRPTRIGLYLSFGDGVLSFYDASDADALVPLFAFHERLPRPVYPFFDVCWHDKGKNAQPLLLVGPEGAEA
notes: as for B2
B9: TRIM72 W277E (natural protein, human, UniProt Q6ZMU5-1 2-477, looked up)
chain: SAAPGLLHQELSCPLCLQLFDAPVTAECGHSFCRACLGRVAGEPAADGTVLCPCCQAPTRPQALSTNLQLARLVEGLAQVPQGHCEEHLDPLSIYCEQDRALVCGVCASLGSHRGHRLLPAAEAHARLKTQLPQQKLQLQEACMRKEKSVAVLEHQLVEVEETVRQFRGAVGEQLGKMRVFLAALEGSLDREAERVRGEAGVALRRELGSLNSYLEQLRQMEKVLEEVADKPQTEFLMKYCLVTSRLQKILAESPPPARLDIQLPIISDDFKFQVERKMFRALMPALEELTFDPSSAHPSLVVSSSGRRVECSEQKAPPAGEDPRQFDKAVAVVAHQQLSEGEHYWEVDVGDKPRWALGVIAAEAPRRGRLHAVPSQGLWLLGLREGKILEAHVEAKEPRALRSPERRPTRIGLYLSFGDGVLSFYDASDADALVPLFAFHERLPRPVYPFFDVCWHDKGKNAQPLLLVGPEGAEA
notes: as for B2
B10: TRIM72 R198E (natural protein, human, UniProt Q6ZMU5-1 2-477, looked up)
chain: SAAPGLLHQELSCPLCLQLFDAPVTAECGHSFCRACLGRVAGEPAADGTVLCPCCQAPTRPQALSTNLQLARLVEGLAQVPQGHCEEHLDPLSIYCEQDRALVCGVCASLGSHRGHRLLPAAEAHARLKTQLPQQKLQLQEACMRKEKSVAVLEHQLVEVEETVRQFRGAVGEQLGKMRVFLAALEGSLDREAERVEGEAGVALRRELGSLNSYLEQLRQMEKVLEEVADKPQTEFLMKYCLVTSRLQKILAESPPPARLDIQLPIISDDFKFQVWRKMFRALMPALEELTFDPSSAHPSLVVSSSGRRVECSEQKAPPAGEDPRQFDKAVAVVAHQQLSEGEHYWEVDVGDKPRWALGVIAAEAPRRGRLHAVPSQGLWLLGLREGKILEAHVEAKEPRALRSPERRPTRIGLYLSFGDGVLSFYDASDADALVPLFAFHERLPRPVYPFFDVCWHDKGKNAQPLLLVGPEGAEA
notes: as for B2
B11: TRIM72 R180A (natural protein, human, UniProt Q6ZMU5-1 2-477, looked up)
chain: SAAPGLLHQELSCPLCLQLFDAPVTAECGHSFCRACLGRVAGEPAADGTVLCPCCQAPTRPQALSTNLQLARLVEGLAQVPQGHCEEHLDPLSIYCEQDRALVCGVCASLGSHRGHRLLPAAEAHARLKTQLPQQKLQLQEACMRKEKSVAVLEHQLVEVEETVRQFRGAVGEQLGKMAVFLAALEGSLDREAERVRGEAGVALRRELGSLNSYLEQLRQMEKVLEEVADKPQTEFLMKYCLVTSRLQKILAESPPPARLDIQLPIISDDFKFQVWRKMFRALMPALEELTFDPSSAHPSLVVSSSGRRVECSEQKAPPAGEDPRQFDKAVAVVAHQQLSEGEHYWEVDVGDKPRWALGVIAAEAPRRGRLHAVPSQGLWLLGLREGKILEAHVEAKEPRALRSPERRPTRIGLYLSFGDGVLSFYDASDADALVPLFAFHERLPRPVYPFFDVCWHDKGKNAQPLLLVGPEGAEA
notes: as for B2
B12: TRIM72 R169E (natural protein, human, UniProt Q6ZMU5-1 2-477, looked up)
chain: SAAPGLLHQELSCPLCLQLFDAPVTAECGHSFCRACLGRVAGEPAADGTVLCPCCQAPTRPQALSTNLQLARLVEGLAQVPQGHCEEHLDPLSIYCEQDRALVCGVCASLGSHRGHRLLPAAEAHARLKTQLPQQKLQLQEACMRKEKSVAVLEHQLVEVEETVRQFEGAVGEQLGKMRVFLAALEGSLDREAERVRGEAGVALRRELGSLNSYLEQLRQMEKVLEEVADKPQTEFLMKYCLVTSRLQKILAESPPPARLDIQLPIISDDFKFQVWRKMFRALMPALEELTFDPSSAHPSLVVSSSGRRVECSEQKAPPAGEDPRQFDKAVAVVAHQQLSEGEHYWEVDVGDKPRWALGVIAAEAPRRGRLHAVPSQGLWLLGLREGKILEAHVEAKEPRALRSPERRPTRIGLYLSFGDGVLSFYDASDADALVPLFAFHERLPRPVYPFFDVCWHDKGKNAQPLLLVGPEGAEA
notes: as for B2

Biological target: the molecule itself
Test: SEC-MALS; point mutants, 100 μL at 1 mg/mL; Superdex 200 increase, 20 mM Tris-HCl pH 8.0, 200 mM NaCl, 0.3 mM TCEP

Row | Protein | stoichiometry N
1 | B1 | 2
2 | B2 | 2
3 | B3 | 2
4 | B4 | 2
5 | B5 | 2
6 | B6 | 2
7 | B7 | 2
8 | B8 | 2
9 | B9 | 2
10 | B10 | 2
11 | B11 | 2
12 | B12 | 2
